From publication PMC3949306
Values belong to the binder of their own block, whether it stands above or below them.

How the values were obtained:
[1] = molecular target: PP2A-B55 heterotrimer (B55 isoform not named for the experiment) (not stated | human (endogenous in HEK293)) (UniProt P63151); assay: inhibition of phosphatase activity, IC50 converted to Kd; PP2A-B55 at 0.125 nM, radioactive CDKS substrate at 5 μM, varying thiophosphorylated Endos; Kd calculated from the IC50 according to the equation of Sasaki et al. (1994) and Takai et al. (1995)
[2] = molecular target: PP2A-B55 heterotrimer (B55 isoform not named for the experiment) (not stated | human (endogenous in HEK293)) (UniProt P63151)
[3] = molecular target: PP2A-B55 heterotrimer (B55 isoform not named for the experiment) (not stated | human (endogenous in HEK293)) (UniProt P63151); assay: rate constants calculated from constants of phosphatase activity assays; kon and koff determined from the experimentally measured Kd (for thiophosphorylated Endos) and kcat; used for the theoretical time-course of Figure 10A
[4] = molecular target: PP2A-B55 heterotrimer (B55 isoform not named for the experiment) (not stated | human (endogenous in HEK293)) (UniProt P63151); remark: listed apart in the source
[5] = molecular target: PP2A-B55α heterotrimer (not stated | human (endogenous in HEK293)) (UniProt P63151)

Sequence of UniProt P63151 (P63151 whole entry, chain 1 of 3, canonical isoform): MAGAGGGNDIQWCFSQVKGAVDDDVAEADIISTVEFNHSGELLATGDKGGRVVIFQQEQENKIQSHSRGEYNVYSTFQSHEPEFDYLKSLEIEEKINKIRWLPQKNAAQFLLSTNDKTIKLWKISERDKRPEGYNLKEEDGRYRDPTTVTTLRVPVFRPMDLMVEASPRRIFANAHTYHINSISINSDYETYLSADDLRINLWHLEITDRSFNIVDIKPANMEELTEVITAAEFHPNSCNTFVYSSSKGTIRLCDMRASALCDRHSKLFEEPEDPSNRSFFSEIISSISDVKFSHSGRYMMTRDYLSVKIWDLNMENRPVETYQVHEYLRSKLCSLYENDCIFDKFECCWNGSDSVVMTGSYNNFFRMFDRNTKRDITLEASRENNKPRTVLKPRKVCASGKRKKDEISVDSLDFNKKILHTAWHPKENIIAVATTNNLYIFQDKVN
Sequence of UniProt P63151 (P30153 whole entry, chain 2 of 3, further chain, canonical isoform): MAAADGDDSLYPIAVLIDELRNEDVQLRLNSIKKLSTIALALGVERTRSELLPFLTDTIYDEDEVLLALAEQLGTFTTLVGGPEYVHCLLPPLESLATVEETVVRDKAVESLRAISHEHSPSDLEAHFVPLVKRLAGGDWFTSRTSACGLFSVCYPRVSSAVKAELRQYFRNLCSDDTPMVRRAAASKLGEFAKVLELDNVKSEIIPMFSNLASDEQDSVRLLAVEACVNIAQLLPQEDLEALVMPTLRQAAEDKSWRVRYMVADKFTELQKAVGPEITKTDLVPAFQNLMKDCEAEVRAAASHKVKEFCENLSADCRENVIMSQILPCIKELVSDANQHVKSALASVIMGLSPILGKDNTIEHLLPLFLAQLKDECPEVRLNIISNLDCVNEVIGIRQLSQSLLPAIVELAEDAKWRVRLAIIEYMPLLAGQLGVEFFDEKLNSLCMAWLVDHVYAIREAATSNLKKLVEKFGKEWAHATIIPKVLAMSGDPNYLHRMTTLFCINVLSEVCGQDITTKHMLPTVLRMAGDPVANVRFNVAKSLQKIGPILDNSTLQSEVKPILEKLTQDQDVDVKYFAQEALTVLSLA
Sequence of UniProt P63151 (P67775 whole entry, chain 3 of 3, further chain, canonical isoform): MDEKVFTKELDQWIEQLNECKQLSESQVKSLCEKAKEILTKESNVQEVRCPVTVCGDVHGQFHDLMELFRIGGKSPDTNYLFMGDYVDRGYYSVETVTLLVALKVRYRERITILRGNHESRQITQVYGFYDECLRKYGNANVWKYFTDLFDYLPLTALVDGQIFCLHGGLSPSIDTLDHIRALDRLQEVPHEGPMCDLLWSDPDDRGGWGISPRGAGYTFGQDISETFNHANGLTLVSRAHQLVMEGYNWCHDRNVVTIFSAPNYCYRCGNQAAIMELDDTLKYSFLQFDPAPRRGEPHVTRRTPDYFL

koff [3]: 0.0068 s⁻¹
Km of pEndos for PP2A-B55, best fit to the time course of pCDKS dephosphorylation with 16 nM unlabeled pEndos (Figure 8B) [4]: 0.47 nM
B2: Gwl-phosphorylated Xenopus Endosulfine (pEndos) (natural protein)
chain: MSDKYIGDSHLEETGEEKQDSQEKEAVTPEKAEEQKLKAKYPNLGQKPGGSDFLMKRLQKGQKYFDSGDYNMAKAKIKNKQLPCAGPDKNLVTGDHIPTPQDLPQRKSSLVTSKLAGHVEDLHHV
modifications: phosphorylated in vitro by Gwl kinase at the Gwl site (32P-labelled or non-radioactive); between 0.5 and 1.0 phosphate per mole of protein

IC50 of inhibition of PP2A-B55's anti-CDKS activity (dephosphorylation of radioactive pCDKS) [2]: 566 nM
B3: unphosphorylated Xenopus Endosulfine (natural protein)
chain: MSDKYIGDSHLEETGEEKQDSQEKEAVTPEKAEEQKLKAKYPNLGQKPGGSDFLMKRLQKGQKYFDSGDYNMAKAKIKNKQLPCAGPDKNLVTGDHIPTPQDLPQRKSSLVTSKLAGHVEDLHHV

Second part, the binder before the results:

B1: Xenopus Endosulfine thiophosphorylated by Gwl kinase (natural protein)
chain: MSDKYIGDSHLEETGEEKQDSQEKEAVTPEKAEEQKLKAKYPNLGQKPGGSDFLMKRLQKGQKYFDSGDYNMAKAKIKNKQLPCAGPDKNLVTGDHIPTPQDLPQRKSSLVTSKLAGHVEDLHHV
modifications: thiophosphorylated by Gwl in the presence of 1 mM ATP-[γ]-35S instead of ATP
Kd [1]: 0.12 nM
IC50 of inhibition of PP2A-B55's anti-CDKS activity (dephosphorylation of radioactive pCDKS) [2]: 197 pM

B4: phosphomimetic Drosophila Endos (S68D) (natural protein)
chain: MSSAEENSNSPATTPQDTETTEQANLTDLEKIEEEKLKSKYPSGMRVPGGHSAFLQKRLQKGQKFFDDGDYQMAKQKGGGVKQVFANKVTTGEAIPTPETVPARKTSIIQPCNKFPATS
IC50 of inhibition of the anti-CDKS activity of purified PP2A-B55α (Figure 6D) [5]: 500 nM
